Measurements published in patent US20230285514A1, “STAPLED LACTAM CO-AGONISTS OF THE GLUCAGON AND GLP-1 RECEPTORS” (Merck Sharp & Dohme LLC, priority 2019, published 2023).
*1 amine or outer side, *2 acyl side, *3 side chain or, on linkers, in order; H or OH if unused. Where a SMILES comes first, the peptide text is derived from it. Bridges are numbered along the chain shown (N, C = ends). Where no end group is shown, it is not given here. Side-chain parts run from the residue outwards. [ ]: non-standard residue; d: D form. The star is where a group is joined. γGlu = O=C(O)[C@H](CCC(=O)[*:2])N[*:1]; Met(O2) = CS(=O)(=O)CC[C@H](N)C(=O)O; Palmitoyl = CCCCCCCCCCCCCCCC(=O)*; Nle = CCCC[C@H](N)C(=O)O; Ac4c = NC1(C(=O)O)CCC1; Aib = CC(C)(N)C(=O)O

Legend:
human GCGR = target: T1, human GCGR (Homo sapiens, UniProt P47871); assay: cAMP activity assay, cells expressing human GCGR; format: cell-based; settings: ratio of human GCGR EC50 to human GLP1R EC50
T1 construct: expressed in transfected cells
Protocol: Activity of the peptides at the Glucagon receptor (GCGR) and GLP-1 receptor (GLP1R) was measured in a cAMP activity assay. Peptides were dissolved in 100% DMSO and serially diluted to generate 10 point titrations. The peptide solutions were then transferred into 384-well assay plates (150 nL/well). Assay ready frozen cells expressing human GLP1R or human GCGR were suspended in growth media consisting of DMEM medium (GIBCO), 10% FBS (GIBCO), 1×NEAA(GIBCO), 1×P/S (GIBCO), 10 ug/ml Blasticidin (GIBCO) and 200 μg/mL Hygromycin (GIBCO). […] The cell suspensions (15 μL) were then added to the assay plates containing the peptide solutions (30,000 cells/well for human GCGR; 10,000 cells/well for human GLP1R). […] Production of cAMP was determined using […] kits (DiscoverX) following manufacturer protocol. The plates were incubated for overnight at room temperature in the dark. Luminescence was measured using an EnVision Multilabel plate reader (Perkin Elmer). Native GLP-1 and Glucagon (Bachem) are used as control peptides.

[1] = target: human Glucagon receptor (GCGR) (human, UniProt P47871); assay: cell-based or functional assay
[2] = target: human GLP-1 receptor (GLP1R) (human, UniProt P43220); assay: cell-based or functional assay

T1 sequence (P47871 26-477): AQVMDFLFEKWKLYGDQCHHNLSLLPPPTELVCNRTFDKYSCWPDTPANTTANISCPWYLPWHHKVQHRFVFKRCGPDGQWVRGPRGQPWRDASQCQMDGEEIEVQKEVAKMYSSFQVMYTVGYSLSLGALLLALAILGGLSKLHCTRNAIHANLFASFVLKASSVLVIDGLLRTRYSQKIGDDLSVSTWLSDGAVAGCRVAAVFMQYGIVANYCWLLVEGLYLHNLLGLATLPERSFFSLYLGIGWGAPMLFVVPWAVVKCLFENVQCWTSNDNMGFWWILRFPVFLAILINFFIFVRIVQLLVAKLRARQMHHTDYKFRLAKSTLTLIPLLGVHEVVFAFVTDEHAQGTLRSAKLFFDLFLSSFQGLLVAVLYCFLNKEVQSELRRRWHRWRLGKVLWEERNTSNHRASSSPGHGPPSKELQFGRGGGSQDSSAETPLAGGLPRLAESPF

Molecule	hGCGR/hGLPIR (hTone) (human GCGR)	GCGR EC50 human (nM), cAMP activity assay [1] [nM]	GLP1R EC50 human (nM), cAMP activity assay [2] [nM]
CCCCCCCCCCCCCCCC(=O)N[C@@H](CCC(=O)N[C@@H](CCC(=O)NCCCC[C@H](NC(=O)[C@H](CC(=O)O)NC(=O)[C@H](CO)NC(=O)[C@@H](NC(=O)[C@H](Cc1ccccc1)NC(=O)[C@@H](NC(=O)CNC(=O)[C@H](CCC(N)=O)NC(=O)[C@@H](CO)NC(=O)[C@@H](N)Cc1c[nH]cn1)[C@@H](C)O)[C@@H](C)O)C(=O)N[C@@H](CO)C(=O)N[C@@H](CCCCN)C(=O)N[C@@H](Cc1ccc(O)cc1)C(=O)N[C@@H](CC(C)C)C(=O)N[C@@H](CC(=O)O)C(=O)N[C@@H](C)C(=O)N[C@@H](CCCNC(=N)N)C(=O)N[C@@H](C)C(=O)N[C@@H](C)C(=O)N[C@@H](CCC(N)=O)C(=O)N[C@@H](CC(=O)O)C(=O)N[C@@H](Cc1ccccc1)C(=O)N[C@H](C(=O)N[C@H]1CCCCNC(=O)CC[C@@H](C(=O)N[C@H](C(N)=O)[C@@H](C)O)NC(=O)[C@H](CC(C)C)NC(=O)[C@H](CC(C)C)NC(=O)[C@H](Cc2c[nH]c3ccccc23)NC1=O)C(C)C)C(=O)O)C(=O)O [SEQ ID NO: 13] (H-H[dS]QGTFTSDK([γGlu-γGlu-Palmitoyl])SKYLDARAAQDFVKWLLET-NH2; lactam 24-28; N-terminus assumed)	0.56		
H[Aib]QGTFTSDKSKYLD[Ac4c]KAAQEFVQWL[Met(O2)]DTK(γGlu)-NH2 (lactam 17-21; not fully specified (residue 10)) [TP857]		0.092	0.038
H[dS]QGTFTSDKSKYLDARAAQDFVKWLLET-NH2 (lactam 24-28; not fully specified (residue 10); printed as HsQGTFTSDK(γEγEC16)SKYLDARAAQDFVK*WLLE*T-NH2) [TP834]		0.077	0.137
H[Aib]QGTFTSDKSKYLD[Ac4c]RAAKDFVEWL[Met(O2)]DTK(γGlu)-NH2 (lactam 20-24; not fully specified (residue 10)) [TP859]		0.108	0.043
H[Aib]QGTFTSDKSKYLD[Aib]RAAKDFVEWL[Nle]DT-NH2 (lactam 20-24; not fully specified (residue 10); printed as HUQGTFTSDK(γEγEC16)SKYLDURAAK*DFVE*WL-Nle-DT-NH2) [TP838]		0.675	0.259
H[Aib]QGTFTSDKSKYLD[Aib]KAAQEFVQWL[Met(O2)]DTK(γGlu)-NH2 (lactam 17-21; not fully specified (residue 10); printed as HUQGTFTSDK(γEγEC16)SKYLDUK*AAQE*FVQWL2DTKγE-NH2) [TP848]		0.079	0.044
H[Aib]QGTFTSDKSKYLDKRAAEDFVQWL[Met(O2)]DTK(γGlu)-NH2 (lactam 16-20; not fully specified (residue 10); printed as HUQGTFTSDK(γEγEC16)SKYLDK*RAAE*DFVQWL2DTKγE-NH2) [TP844]		0.046	0.022
H[dS]QGTFTSDKSKYLDERAAKDFVEWLLDT-NH2 (lactam 20-24; not fully specified (residue 10); printed as HsQGTFTSDK(γEγEC16)SKYLDERAAK*DFVE*WLLDT-NH2) [TP485]		0.05	0.14
H[Aib]QGTFTSDKSKYLD[Aib]RAAKDFVEWL[Met(O2)]DTK(γGlu)-NH2 (lactam 20-24; not fully specified (residue 10); printed as HUQGTFTSDK(γEγEC16)SKYLDURAAK*DFVE*WL2DTKγE-NH2) [TP846]		0.176	0.147
H[dS]QGTFTSEK([γGlu-γGlu-C16 fatty acid])SKKLD[Aib]RAAQDFVQWLLATK(γGlu)-NH2 (lactam 9-13) [TP115]		0.81	1.03
H[Aib]QGTFTSDKSKYLD[Aib]RAAQDFVKWL[Met(O2)]ETK(γGlu)-NH2 (lactam 24-28; not fully specified (residue 10); printed as HUQGTFTSDK(γEγEC16)SKYLDURAAQDFVK*WL2E*TKγE-NH2) [TP850]		0.034	0.033
H[Aib]QGTFTSDKSKYLD[Aib]KAAQEFVQWL[Nle]DT-NH2 (lactam 17-21; not fully specified (residue 10); printed as HUQGTFTSDK(γEγEC16)SKYLDUK*AAQE*FVQWL-Nle-DT-NH2) [TP840]		0.212	0.17
H[Aib]QGTFTSDKSKYLD[Aib]RAAQDFVEWLMKTK(γGlu)-NH2 (lactam 24-28; not fully specified (residue 10); printed as HUQGTFTSDK(γEγEC16)SKYLDURAAQDFVE*WLMK*TKγE-NH2) [TP486]		0.06	0.29
H[Aib]QGTFTSDKSKYLD[Ac4c]RAAQDFVKWL[Met(O2)]ETK(γGlu)-NH2 (lactam 24-28; not fully specified (residue 10)) [TP861]		0.928	0.056
H[Aib]QGTFTSDKSKYLD[Aib]RAAQDFVKWL[Nle]ET-NH2 (lactam 24-28; not fully specified (residue 10); printed as HUQGTFTSDK(γEγEC16)SKYLDURAAQDFVK*WL-Nle-E*T-NH2) [TP842]		0.248	0.237
H[dS]QGTFTSDKSKYLDKRAAEDFVQWLLDT-NH2 (lactam 16-20; not fully specified (residue 10); printed as HsQGTFTSDK(γEγEC16)SKYLDK*RAAE*DFVQWLLDT-NH2) [Peptide SEQ ID No. 10 (TP706)]		0.089	0.107
H[Aib]QGTFTSDKSKYLDKRAAEDFVQWL[Nle]DT-NH2 (lactam 16-20; not fully specified (residue 10); printed as HUQGTFTSDK(γEγEC16)SKYLDK*RAAE*DFVQWL-Nle-DT-NH2) [TP836]		0.281	0.198
HXQGTFTSDXSKYLDERAAEDFVKWLLDT (s = D-Serine at 2; K10 conjugated to γEγE-C16 fatty acid; E*20 and K*24 cyclized to form a lactam containing ring; C-terminal amide) [TP484]		0.04	0.12
H[dS]QGTFTSDKSKYLDAKAAQEFVQWLLDT-NH2 (lactam 17-21; not fully specified (residue 10); printed as HsQGTFTSDK(γEγEC16)SKYLDAK*AAQE*FVQWLLDT-NH2) [TP710]		0.06	0.07
H[dS]QGTFTSDKSKYLDARAAKDFVEWLLDT-NH2 (lactam 20-24; not fully specified (residue 10); printed as HsQGTFTSDK(γEγEC16)SKYLDARAAK*DFVE*WLLDT-NH2) [TP707]		0.1	0.17
